Patent US20190211099A1, “METHODS AND COMPOSITIONS FOR TREATING CANCER WITH SIGLEC-9 ACTIVITY MODULATORS” (KING'S COLLEGE LONDON, priority 2016, published 2019)

Target: Siglec-9 expressed by primary monocytes, monocyte-derived macrophages and monocytic cell lines (THP-1, U937) (human) (UniProt Q9Y336)
Assay: cell-based or functional assay

Sequence of Siglec-9 expressed by primary monocytes, monocyte-derived macrophages and monocytic cell lines (THP-1, U937) (human) (Q9Y336 19-463): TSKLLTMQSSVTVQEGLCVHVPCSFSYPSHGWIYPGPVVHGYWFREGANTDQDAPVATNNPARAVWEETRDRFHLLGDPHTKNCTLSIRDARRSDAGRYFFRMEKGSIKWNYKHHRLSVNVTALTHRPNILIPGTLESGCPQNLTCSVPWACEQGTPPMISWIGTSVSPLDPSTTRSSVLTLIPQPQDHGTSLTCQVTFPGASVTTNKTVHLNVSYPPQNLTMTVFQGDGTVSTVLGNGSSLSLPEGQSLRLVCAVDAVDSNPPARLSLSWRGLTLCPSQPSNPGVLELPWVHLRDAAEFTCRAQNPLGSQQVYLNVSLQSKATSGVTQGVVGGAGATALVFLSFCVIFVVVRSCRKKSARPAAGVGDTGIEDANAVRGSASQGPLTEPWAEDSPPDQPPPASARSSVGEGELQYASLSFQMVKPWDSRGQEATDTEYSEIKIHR

- IDO mRNA expression in macrophages (qRT-PCR): 10 to 25 fold
Substance: MUC1-ST (recombinant secreted MUC1 consisting of 16 tandem repeats carrying sialylated Core-1 glycans, Ig part removed by trypsin) (from UniProt P15941 129-448) (ligand)
